Assay results: patent US20240417437A1 (TRUTINO BIOSCIENCES, published 2024)
Blank lines part the entries; values can stand above or below the binder they belong to.

Experiments:
[1] = target: T1, collagen cross-linked to agarose (Sigma); assay: pulldown with collagen-agarose, immunoblot quantified with iBright imaging system; reference Construct B
T1 construct: also called collagen-agarose; collagen-agarose beads
Method: To test binding to collagen, a pulldown assay using agarose cross-linked to collagen (Sigma) was performed. IL-2 fusion proteins were incubated with collagen-agarose or control agarose beads for 18-22 hours at 4° C. with gentle rotation in 1% BSA/PBS-0.05% Tween 20. After washing, proteins bound to the beads were eluted by resuspending beads in SDS sample buffer (Life Technologies). […] Donkey anti-goat HRP-conjugated antibody was used for detection (Jackson Immuno Research, West Grove, PA), and the blot was developed using the SuperSignal West Femto Maximum sensitivity detection reagent (ThermoFisher) following the manufacturer's recommendations. Construct GG and Construct II were specifically bound by collagen-agarose beads, while no IL-2 fusion protein bound the control agarose beads.

[2] = target: fibronectin (Sigma), coated on 96-well plates; assay: plate ELISA on coated fibronectin at pH 6, OD 450-650nm. The EC50 is printed in the plot area beside the top curve (Construct EE - pH 6), the only strongly rising curve
Method: A similar plate-based assay was developed to interrogate binding of IL-2 fusion variants to fibronectin. 96-well plates were coated with fibronectin (4-10 μg/mL, Sigma) or control BSA for 18-22 hours at room temperature on shaker (350 rpm). After washing, wells were blocked with 2% milk powder in PBS-0.05% Tween 20 or protein-free blocking buffer (Pierce) for 90 min, then fusion proteins were titrated in blocking buffer-0.1% Tween 20, pH 7.5 and/or pH 6, and added for 1 hour at room temperature with shaking. After washing, an anti-mouse IL-2 biotin-labelled detection antibody (JES6-5H4, ThermoFisher) or anti-human IgG HRP conjugate antibody (SouthernBiotech) was added, and binding was detected using Ultra Streptavidin HRP (ThermoFisher). The plate was developed by adding the chromogenic tetramethylbenzidine substrate (Ultra TMB, ThermoFisher). The reaction was stopped by addition of 0.5 M H₂SO₄, and the absorbance was read at 450-650 nm.

fibronectin (Sigma), coated on 96-well plates, sequence (P02751 32-2477): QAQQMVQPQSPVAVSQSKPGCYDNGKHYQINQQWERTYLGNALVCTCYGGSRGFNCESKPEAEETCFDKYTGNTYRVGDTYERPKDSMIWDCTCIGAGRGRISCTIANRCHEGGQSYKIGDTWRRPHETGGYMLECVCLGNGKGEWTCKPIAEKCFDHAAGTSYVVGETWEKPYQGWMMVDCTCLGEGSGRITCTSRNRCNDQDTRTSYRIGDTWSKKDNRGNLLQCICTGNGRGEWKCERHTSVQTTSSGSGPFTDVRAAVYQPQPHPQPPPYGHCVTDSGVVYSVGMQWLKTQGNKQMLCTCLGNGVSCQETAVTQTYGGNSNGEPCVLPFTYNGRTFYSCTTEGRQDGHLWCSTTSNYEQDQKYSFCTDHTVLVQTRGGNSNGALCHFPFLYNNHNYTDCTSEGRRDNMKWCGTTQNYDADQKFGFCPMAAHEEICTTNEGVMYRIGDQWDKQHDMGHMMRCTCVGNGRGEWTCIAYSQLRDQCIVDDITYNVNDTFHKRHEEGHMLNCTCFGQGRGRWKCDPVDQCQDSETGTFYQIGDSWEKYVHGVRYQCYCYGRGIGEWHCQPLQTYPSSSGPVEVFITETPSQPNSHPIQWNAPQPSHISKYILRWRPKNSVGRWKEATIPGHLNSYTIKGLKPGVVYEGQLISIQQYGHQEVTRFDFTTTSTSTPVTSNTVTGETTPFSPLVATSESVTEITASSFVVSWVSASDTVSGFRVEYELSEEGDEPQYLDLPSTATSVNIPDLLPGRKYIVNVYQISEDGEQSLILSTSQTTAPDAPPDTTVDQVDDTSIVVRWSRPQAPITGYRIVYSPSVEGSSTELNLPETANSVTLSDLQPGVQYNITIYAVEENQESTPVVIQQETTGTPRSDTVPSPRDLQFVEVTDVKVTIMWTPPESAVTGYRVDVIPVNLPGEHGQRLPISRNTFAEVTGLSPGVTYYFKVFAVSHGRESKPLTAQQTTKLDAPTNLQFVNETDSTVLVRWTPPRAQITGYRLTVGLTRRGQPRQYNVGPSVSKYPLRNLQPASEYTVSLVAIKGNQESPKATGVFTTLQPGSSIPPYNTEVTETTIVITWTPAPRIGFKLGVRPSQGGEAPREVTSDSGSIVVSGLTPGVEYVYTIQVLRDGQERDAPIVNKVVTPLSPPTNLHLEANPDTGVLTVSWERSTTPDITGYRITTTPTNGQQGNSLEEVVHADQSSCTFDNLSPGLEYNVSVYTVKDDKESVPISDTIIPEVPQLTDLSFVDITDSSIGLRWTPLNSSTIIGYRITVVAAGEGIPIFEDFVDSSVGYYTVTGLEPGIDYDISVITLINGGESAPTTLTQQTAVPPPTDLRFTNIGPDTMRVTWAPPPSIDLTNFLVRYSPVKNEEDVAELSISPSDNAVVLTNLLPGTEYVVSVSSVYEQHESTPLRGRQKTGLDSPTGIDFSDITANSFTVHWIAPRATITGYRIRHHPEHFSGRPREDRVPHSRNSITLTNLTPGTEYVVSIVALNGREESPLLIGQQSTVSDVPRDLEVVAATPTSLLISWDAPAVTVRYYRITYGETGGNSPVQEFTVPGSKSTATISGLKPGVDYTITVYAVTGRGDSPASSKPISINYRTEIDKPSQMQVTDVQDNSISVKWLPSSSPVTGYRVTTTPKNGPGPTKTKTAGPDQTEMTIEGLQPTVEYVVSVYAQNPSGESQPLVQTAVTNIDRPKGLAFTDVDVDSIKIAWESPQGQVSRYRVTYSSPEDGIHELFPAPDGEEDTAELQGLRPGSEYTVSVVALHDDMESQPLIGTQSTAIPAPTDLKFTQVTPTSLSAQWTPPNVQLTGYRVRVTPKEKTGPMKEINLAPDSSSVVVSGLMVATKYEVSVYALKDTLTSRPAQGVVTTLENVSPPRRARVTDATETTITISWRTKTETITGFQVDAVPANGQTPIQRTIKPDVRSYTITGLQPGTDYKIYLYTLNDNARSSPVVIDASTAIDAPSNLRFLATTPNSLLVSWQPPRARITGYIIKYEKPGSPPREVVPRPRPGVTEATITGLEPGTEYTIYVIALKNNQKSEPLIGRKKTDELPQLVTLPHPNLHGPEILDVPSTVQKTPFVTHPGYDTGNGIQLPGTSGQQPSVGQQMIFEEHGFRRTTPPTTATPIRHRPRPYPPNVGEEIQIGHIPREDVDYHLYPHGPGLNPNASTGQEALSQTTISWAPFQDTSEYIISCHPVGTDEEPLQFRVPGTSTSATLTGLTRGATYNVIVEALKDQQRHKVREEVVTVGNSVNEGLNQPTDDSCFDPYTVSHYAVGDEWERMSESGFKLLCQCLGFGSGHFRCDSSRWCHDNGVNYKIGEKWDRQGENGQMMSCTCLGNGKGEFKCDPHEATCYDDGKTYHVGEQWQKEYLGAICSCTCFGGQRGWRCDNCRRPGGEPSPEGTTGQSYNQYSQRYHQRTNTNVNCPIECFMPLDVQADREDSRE

fold of bound fraction over Construct B [1]: 1.4 fold
B1: Construct II (collagen I): mIL2-LHERHLNNN(SEQ ID NO: 665)-MMPcs1-2x(G4S)-mIL2Ra(1-215)-muIgG1Fc (Fc fusion)
chain: APTSSSTSSSTAEAQQQQQQQQQQQQHLEQLLMDLQELLSRMENYRNLKLPRMLTFKFYLPKQATELKDLQCLEDELGPLRHVLDLTQSKSFQLEDAENFISNIRVTVVKLKGSDNTFECQFDDESATVVDFLRRWIAFCQSIISTSPQSLHERHLNNNGPLGVRGGGGGSGGGGSELCLYDPPEVPNATFKALSYKNGTILNCECKRGFRRLKELVYMRCLGNSWSSNCQCTSNSHDKSRKQVTAQLEHQKEQQTTTDMQKPTQSMHQENLTGHCREPPPWKHEDSKRIYHFVEGQSVHYECIPGYKALQRGPAISICKMKCGKTGWTQPQLTCVDEREHHRFLASEESQGSRNSSPESETSCPITTTDFPQPTETTAMTETFVLTMEYKGCKPCICTVPEVSSVFIFPPKPKDVLTITLTPKVTCVVVDISKDDPEVQFSWFVDDVEVHTAQTQPREEQFNSTFRSVSELPIMHQDWLNGKEFKCRVNSAAFPAPIEKTISKTKGRPKAPQVYTIPPPKEQMAKDKVSLTCMITDFFPEDITVEWQWNGQPAENYKNTQPIMDTDGSYFVYSKLNVQKSNWEAGNTFTCSVLHEGLHNHHTEKSLSHSPGK

EC50 [2]: 1820 nM
B2: Construct EE (pH fibronectin): mIL2-SGG-GGWSHW(SEQ ID NO: 653)-MMPcs1-2x(G4S)-mIL2Ra(1-215)-muIgG1Fc (Fc fusion)
chain: APTSSSTSSSTAEAQQQQQQQQQQQQHLEQLLMDLQELLSRMENYRNLKLPRMLTFKFYLPKQATELKDLQCLEDELGPLRHVLDLTQSKSFQLEDAENFISNIRVTVVKLKGSDNTFECQFDDESATVVDFLRRWIAFCQSIISTSPQSGGGGWSHWGPLGVRGGGGGSGGGGSELCLYDPPEVPNATFKALSYKNGTILNCECKRGFRRLKELVYMRCLGNSWSSNCQCTSNSHDKSRKQVTAQLEHQKEQQTTTDMQKPTQSMHQENLTGHCREPPPWKHEDSKRIYHFVEGQSVHYECIPGYKALQRGPAISICKMKCGKTGWTQPQLTCVDEREHHRFLASEESQGSRNSSPESETSCPITTTDFPQPTETTAMTETFVLTMEYKGCKPCICTVPEVSSVFIFPPKPKDVLTITLTPKVTCVVVDISKDDPEVQFSWFVDDVEVHTAQTQPREEQFNSTFRSVSELPIMHQDWLNGKEFKCRVNSAAFPAPIEKTISKTKGRPKAPQVYTIPPPKEQMAKDKVSLTCMITDFFPEDITVEWQWNGQPAENYKNTQPIMDTDGSYFVYSKLNVQKSNWEAGNTFTCSVLHEGLHNHHTEKSLSHSPGK
notes: Single-chain mouse IL-2 / IL-2Ralpha / mouse IgG1 Fc fusion
